Assay results from publication doi:10.1101/2023.03.27.534416 (bioRxiv, 2023).

Target: the molecule itself
Assay: MST

B1: MRE11 structured-domain (1-411 aa) (domain or fragment, UniProt P49959 1-411, looked up)
chain: MSTADALDDENTFKILVATDIHLGFMEKDAVRGNDTFVTLDEILRLAQENEVDFILLGGDLFHENKPSRKTLHTCLELLRKYCMGDRPVQFEILSDQSVNFGFSKFPWVNYQDGNLNISIPVFSIHGNHDDPTGADALCALDILSCAGFVNHFGRSMSVEKIDISPVLLQKGSTKIALYGLGSIPDERLYRMFVNKKVTMLRPKEDENSWFNLFVIHQNRSKHGSTNFIPEQFLDDFIDLVIWGHEHECKIAPTKNEQQLFYISQPGSSVVTSLSPGEAVKKHVGLLRIKGRKMNMHKIPLHTVRQFFMEDIVLANHPDIFNPDNPKVTQAIQSFCLEKIEEMLENAERERLGNSHQPEKPLVRLRVDYSGGFEPFSVLRFSQKFVDRVANPKDIIHFFRHREQKEKTGEE
modifications: amine-reactive AlexaFluor-647 dye on the labelled copy; the titrated copy is unlabelled
B1 gave a Kd of 370 ± 80 nM.
